Molecular target: T1, HLA-A0201 on the surface of T2 cells (human)
T1 construct: MHC class I molecule on TAP-deficient T2 cells
Assay: T2 cell peptide loading, 100 µM peptide, anti-HLA-A*02:01 FITC flow cytometry
Experimental: After centrifugation at 200 g for 5 minutes for cell collection, the collected cells were washed with phosphate buffer saline (PBS) buffer twice, before incubated with anti-HLA-A*02:01 FITC monoclonal antibody at 4° C. for 30 minutes. The mean fluorescence intensity of cells was then detected and analyzed by the flow cytometry (BD FACSJazz™) and its software.

| FI (fluorescence index) | Mean fluorescence intensity | Binder |
| --- | --- | --- |
| 1.59 | 589 | FILDGSYSV [wild-type polypeptide (depicted in FILDGSYSV, SEQ ID NO:7)] |
| 2.14 | 714 | FMLDGLYSL [mutant polypeptide's variant (depicted in FMLDGLYSL, SEQ ID NO:5)] |
| 2.04 | 692 | FLLDGLYSV [mutant polypeptide's variant (depicted in FLLDGLYSV, SEQ ID NO:4)] |
| 1.92 | 664 | FILDGLYSV [mutant polypeptide (depicted in FILDGLYSV, SEQ ID NO:1)] |
| 1.99 | 681 | FILDGLYSL [mutant polypeptide's variant (depicted in FILDGLYSL, SEQ ID NO:2)] |
| 2.34 | 759 | FMLDGLYSV [mutant polypeptide's variant (depicted in FMLDGLYSV, SEQ ID NO:3)] |
| 1.69 | 612 | FLLDGLYSL [mutant polypeptide's variant (depicted in FLLDGLYSL, SEQ ID NO:6)] |
